Reference: paper PMC5923459

Molecular target: importin β1 (mouse (endogenous in 3T6)) (UniProt P70168)
Experiment: proximity ligation

importin β1 (mouse (endogenous in 3T6)), sequence (P70168 whole entry): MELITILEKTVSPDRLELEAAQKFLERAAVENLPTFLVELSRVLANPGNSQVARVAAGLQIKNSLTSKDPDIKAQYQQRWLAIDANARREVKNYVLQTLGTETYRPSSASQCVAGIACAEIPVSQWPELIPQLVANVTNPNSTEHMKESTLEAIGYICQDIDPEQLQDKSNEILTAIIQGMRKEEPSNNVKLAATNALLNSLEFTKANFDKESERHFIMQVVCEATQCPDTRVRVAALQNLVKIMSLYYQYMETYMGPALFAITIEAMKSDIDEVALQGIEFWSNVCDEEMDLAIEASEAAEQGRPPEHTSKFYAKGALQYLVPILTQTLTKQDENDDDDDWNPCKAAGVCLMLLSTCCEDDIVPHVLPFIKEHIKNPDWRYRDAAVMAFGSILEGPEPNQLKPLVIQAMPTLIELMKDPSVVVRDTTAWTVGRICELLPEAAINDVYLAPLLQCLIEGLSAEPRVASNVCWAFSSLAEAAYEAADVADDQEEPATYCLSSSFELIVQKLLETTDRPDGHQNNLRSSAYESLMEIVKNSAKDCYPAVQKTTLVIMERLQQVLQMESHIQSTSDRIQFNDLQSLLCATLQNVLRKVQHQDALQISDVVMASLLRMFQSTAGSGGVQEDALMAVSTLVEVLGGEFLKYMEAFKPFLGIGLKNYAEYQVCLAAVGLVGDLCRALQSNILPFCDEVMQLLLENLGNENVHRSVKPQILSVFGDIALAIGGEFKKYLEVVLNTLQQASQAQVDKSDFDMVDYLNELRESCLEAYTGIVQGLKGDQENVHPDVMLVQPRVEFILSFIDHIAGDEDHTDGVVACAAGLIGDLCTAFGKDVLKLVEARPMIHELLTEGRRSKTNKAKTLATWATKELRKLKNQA
wild type mouse polyomavirus (MPyV) virions, strain A3 (capsid proteins VP1, VP2 and VP3), sequence (P03097 whole entry, looked up): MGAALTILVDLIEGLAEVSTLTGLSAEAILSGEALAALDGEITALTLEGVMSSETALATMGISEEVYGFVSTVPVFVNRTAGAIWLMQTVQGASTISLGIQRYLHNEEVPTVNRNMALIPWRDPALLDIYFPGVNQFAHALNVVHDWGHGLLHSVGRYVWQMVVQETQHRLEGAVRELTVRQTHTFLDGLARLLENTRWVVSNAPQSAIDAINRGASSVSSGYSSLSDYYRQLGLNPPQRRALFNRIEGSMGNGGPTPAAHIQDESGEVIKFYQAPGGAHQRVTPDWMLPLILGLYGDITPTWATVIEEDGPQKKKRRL
wild type mouse polyomavirus (MPyV) virions, strain A3 (capsid proteins VP1, VP2 and VP3), sequence (P03091 whole entry, looked up): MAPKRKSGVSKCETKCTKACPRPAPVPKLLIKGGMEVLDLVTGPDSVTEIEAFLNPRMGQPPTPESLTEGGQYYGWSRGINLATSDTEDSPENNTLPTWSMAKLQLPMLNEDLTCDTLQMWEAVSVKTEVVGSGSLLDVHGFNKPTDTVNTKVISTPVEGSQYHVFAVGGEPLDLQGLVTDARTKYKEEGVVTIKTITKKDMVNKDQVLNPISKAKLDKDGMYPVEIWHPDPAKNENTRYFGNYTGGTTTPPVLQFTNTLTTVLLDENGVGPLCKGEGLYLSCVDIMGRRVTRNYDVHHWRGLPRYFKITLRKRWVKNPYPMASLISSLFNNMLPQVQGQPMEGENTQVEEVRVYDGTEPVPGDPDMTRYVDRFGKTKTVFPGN

Question: Which PLA spots per 50 cells (spots per 50 cells) does the source give for “wild type mouse polyomavirus (MPyV) virions, strain A3 (capsid proteins VP1, VP2 and VP3) (from UniProt P03091;P03097) (complex)” here?
Answer: The PLA spots per 50 cells (spots per 50 cells) was greater than 1000.
